These results are taken from the Immune Epitope Database (IEDB).

Some results are limits rather than exact numbers.

The target of experiment [1] is HLA-B*58:01. Briefly: IEDB peptide-MHC binding, purified MHC/competitive/radioactivity; filed as Kd, often an IC50 or EC50 that approximates it; ≥ and ≤ were set here for values at or beyond the usual limits of such assays.
The target of experiment [2] is HLA-B*51:01. Briefly: IEDB peptide-MHC binding, purified MHC/direct/fluorescence; filed as Kd, often an IC50 or EC50 that approximates it; ≥ and ≤ were set here for values at or beyond the usual limits of such assays.
The next experiment addresses HLA-B*15:42. Briefly: IEDB peptide-MHC binding, purified MHC/competitive/fluorescence; filed as Kd, often an IC50 or EC50 that approximates it; ≥ and ≤ were set here for values at or beyond the usual limits of such assays.
A further experiment addresses HLA-B*83:01. The experiment is described as above.
Another experiment deals with HLA-B*45:06. The experiment is described as above.
In a further experiment the target is HLA-C*15:02. Briefly: IEDB peptide-MHC binding, purified MHC/direct/fluorescence; filed as Kd, often an IC50 or EC50 that approximates it; ≥ and ≤ were set here for values at or beyond the usual limits of such assays.
Experiment [3] concerns the target HLA-B*58:01. The experiment is described as above.
The next experiment deals with HLA-A*11:01. Described as above. As to conditions: source organism: Orthohantavirus hantanense.
A further experiment has as its target HLA-A*32:01. Put plainly: IEDB peptide-MHC binding, purified MHC/competitive/radioactivity; filed as Kd, often an IC50 or EC50 that approximates it; ≥ and ≤ were set here for values at or beyond the usual limits of such assays.
Experiment [4] has as its target HLA-B*57:01. The description is as above.
In experiment [5] the target is HLA-A*68:02. The description is as above. The settings on record: source organism: Dengue virus 2 Jamaica/1409/1983.
Experiment [6] has as its target HLA-A*69:01. Briefly: IEDB peptide-MHC binding, purified MHC/direct/fluorescence; filed as Kd, often an IC50 or EC50 that approximates it; ≥ and ≤ were set here for values at or beyond the usual limits of such assays. The settings on record: source organism: West Nile virus.
In experiment [7] the target is HLA-A*26:01. Put plainly: IEDB peptide-MHC binding, purified MHC/competitive/fluorescence; filed as Kd, often an IC50 or EC50 that approximates it; ≥ and ≤ were set here for values at or beyond the usual limits of such assays. The settings on record: source organism: Zaire ebolavirus.
The next experiment addresses HLA-B*15:17. Described as above. As to conditions: source organism: Zaire ebolavirus.
Experiment [8] concerns the target HLA-A*69:01. The experiment is described as above.
The target of another experiment is HLA-B*46:01. The description is as above. The settings on record: source organism: Zaire ebolavirus.
Experiment [9] deals with HLA-B*15:01. The description is as above. The settings on record: source organism: Zaire ebolavirus.
The target in experiment [10] is HLA-B*57:01. The description is as above. The settings on record: source organism: Zaire ebolavirus.
Experiment [11] addresses HLA-B*51:01. The description is as above. As to conditions: source organism: Zaire ebolavirus.
The target of the next experiment is HLA-B*27:03. The description is as above.
For experiment [12], the target named is HLA-B*39:01. Described as above.
The next experiment addresses HLA-B*18:01. The description is as above.
In a further experiment the target is HLA-A*02:01. Described as above.
Another experiment concerns the target HLA-A*02:03. Briefly: IEDB peptide-MHC binding, purified MHC/direct/fluorescence; filed as Kd, often an IC50 or EC50 that approximates it; ≥ and ≤ were set here for values at or beyond the usual limits of such assays.
A further experiment deals with HLA-A*02:16. Described as above.
In the next experiment the target is HLA-A*29:02. The description is as above.
For experiment [13], the target named is HLA-A*68:02. The description is as above.
The next experiment deals with HLA-A*03:01. Described as above.
A further experiment has as its target HLA-A*02:19. The experiment is described as above.
The next experiment has as its target HLA-A*24:03. The description is as above. As to conditions: source organism: Zaire ebolavirus.
The target in the next experiment is HLA-A*02:12. Described as above.
A further experiment deals with HLA-A*02:11. Described as above.
A further experiment concerns the target HLA-A*24:02. Briefly: IEDB peptide-MHC binding, purified MHC/competitive/fluorescence; ≥ and ≤ were set here for values at or beyond the usual limits of such assays. As to conditions: source organism: Sudan ebolavirus.
Experiment [14] has as its target HLA-A*26:01. Put plainly: IEDB peptide-MHC binding, purified MHC/direct/fluorescence; filed as Kd, often an IC50 or EC50 that approximates it; ≥ and ≤ were set here for values at or beyond the usual limits of such assays. The settings on record: source organism: Orthohantavirus moroense.
Experiment [15] has as its target HLA-B*15:01. The experiment is described as above.
The target in experiment [16] is HLA-B*39:01. Described as above. As to conditions: source organism: Camelpox virus M-96.
In a further experiment the target is HLA-B*07:02. The experiment is described as above. As to conditions: source organism: Vibrio parahaemolyticus.
The mark [17] stands for this setting: source organism: West Nile virus.
Setting [18] is: source organism: Mycobacterium tuberculosis C.
The mark [19] stands for this setting: source organism: Dengue virus 2 Jamaica/1409/1983.
The mark [20] stands for this setting: source organism: Zaire ebolavirus.
Where [21] appears, read: source organism: Ebola virus Yambio0403.
Setting [22] is: source organism: Dengue virus 4 Philippines/H241/1956.
Where [23] appears, read: source organism: Orthohantavirus puumalaense.
The mark [24] stands for this setting: source organism: Limestone Canyon virus.
Where [25] appears, read: source organism: human gammaherpesvirus 4.

For SAIVLEFFMM, the Kd in the experiment with HLA-B*58:01 [1] (source organism: Dengue virus 3 Martinique/1243/1999) came to 0.198 µM.
For RPAADGKTV, in the experiment with HLA-B*51:01 [2] (setting [17]), the Kd is at least 20 µM.
RPMLARLTV: the Kd with HLA-B*15:42 (setting [18]) was at least 5 µM; with HLA-B*83:01 (setting [18]), 0.185 µM; in the experiment with HLA-B*45:06 (setting [18]), at least 5 µM.
Take WMADVPLQW: in the experiment with HLA-B*58:01 [1] (source organism: Dengue virus 3 Singapore/8120/1995), the Kd worked out at 0.000528 µM.
As to ISNQEPLKL, the Kd with HLA-C*15:02 (source organism: Orthohantavirus dobravaense) was 0.009 µM; with HLA-B*58:01 [3] (source organism: Orthohantavirus hantanense), 0.105 µM; with HLA-A*11:01 it was 18.6 µM.
In the case of HTWTEQYKF, the Kd with HLA-A*32:01 (setting [19]) came out at 0.151 µM; in the experiment with HLA-B*57:01 [4] (setting [19]), 0.00237 µM.
Consider ESSPNPTIEA, for which the Kd is 0.0523 µM in the experiment with HLA-A*68:02 [5] and 2.09 µM with HLA-B*57:01 [4] (setting [19]).
For the sequence RLARAIIEL, the Kd is 3.79 µM in the experiment with HLA-A*69:01 [6] and 2.42 µM with HLA-C*15:02 (setting [17]).
As for SWHHTSDDF, the equilibrium dissociation constant (Kd) in the experiment with HLA-A*26:01 [7], in the experiment with HLA-B*15:17, in the experiment with HLA-A*69:01 [8] (setting [20]), with HLA-B*46:01, with HLA-B*15:01 [9] and with HLA-B*57:01 [10] was at least 20 µM in each case. The Kd with HLA-B*51:01 [11], with HLA-B*27:03 (setting [20]), with HLA-B*39:01 [12] (setting [20]), with HLA-B*18:01 (setting [20]), with HLA-A*02:01 (setting [20]) and with HLA-A*02:03 (setting [21]) was at least 20 µM in each case. In addition, the Kd is at least 20 µM with HLA-A*02:16 (setting [21]); at least 20 µM with HLA-A*29:02 (setting [21]); at least 20 µM in the experiment with HLA-A*68:02 [13] (setting [21]); at least 20 µM with HLA-A*03:01 (setting [21]); at least 20 µM with HLA-A*02:19 (setting [21]); 0.0187 µM with HLA-A*24:03. Besides, the Kd in the experiment with HLA-A*02:12 (setting [21]) and with HLA-A*02:11 (setting [21]) was at least 20 µM throughout.
On to KTWGKAKIF, for which the Kd was found to be 0.0603 µM with HLA-A*32:01 (setting [22]) and 0.0363 µM in the experiment with HLA-B*57:01 [4] (setting [22]).
For the sequence KCNPNLHYW, the Kd in the experiment with HLA-A*26:01 [7], with HLA-A*69:01 [8] (setting [20]), in the experiment with HLA-B*46:01, with HLA-B*27:03 (setting [20]), in the experiment with HLA-B*39:01 [12] (setting [20]) and with HLA-B*18:01 (setting [20]) was at least 20 µM each time. The Kd in the experiment with HLA-A*02:01 (setting [20]), with HLA-A*02:03 (setting [20]), with HLA-A*02:16 (setting [20]), in the experiment with HLA-A*29:02 (setting [20]), in the experiment with HLA-A*68:02 [13] (setting [20]) and in the experiment with HLA-A*03:01 (setting [20]) was at least 20 µM in each case. In addition, the Kd is 2.6 µM with HLA-B*58:01 [3] (source organism: Ebola virus - Eckron (Zaire, 1976)); at least 20 µM with HLA-A*02:19 (setting [20]); at least 20 µM with HLA-A*02:12 (setting [20]); at least 20 µM in the experiment with HLA-A*02:11 (setting [20]). In the experiment with HLA-A*24:02, this sequence displayed a concentration for half-maximal inhibition (IC50) of 0.376 µM.
KTSIGLLCVM: the Kd with HLA-B*57:01 [4] (source organism: Dengue virus 1 Singapore/S275/1990) was determined as 0.0114 µM.
For ATKDSFQSF, the Kd with HLA-A*69:01 [8] (setting [23]), in the experiment with HLA-B*27:03 (setting [23]), in the experiment with HLA-B*39:01 [12] (setting [23]), with HLA-B*18:01 (setting [23]), with HLA-A*02:01 (setting [23]) and in the experiment with HLA-A*02:03 (setting [24]) was at least 20 µM each time. Further, the Kd in the experiment with HLA-A*02:16 (setting [24]) is at least 20 µM; with HLA-A*26:01 [14], 0.556 µM; in the experiment with HLA-B*15:01 [15] (source organism: Orthohantavirus moroense) it was 0.372 µM; in the experiment with HLA-A*68:02 [13] (setting [24]), at least 20 µM; with HLA-A*03:01 (setting [24]), at least 20 µM; with HLA-A*02:19 (setting [24]), at least 20 µM. Moreover, the Kd with HLA-A*02:12 (setting [24]) and with HLA-A*02:11 (setting [24]) was at least 20 µM each time.
Sequence KSLQTTRRF returned a Kd with HLA-C*15:02 (source organism: Histophilus somni 129PT) of 0.266 µM.
For YHDDDNTTT, the Kd in the experiment with HLA-B*39:01 [16] came to 0.343 µM.
On to EPATQTFDM, for which the figures for the Kd in the experiment with HLA-B*15:01 [15] (source organism: Vibrio parahaemolyticus RIMD 2210633), with HLA-B*51:01 [2] (source organism: Vibrio parahaemolyticus) and with HLA-B*07:02 were at least 20 µM, at least 20 µM and 0.121 µM, respectively.
TEMYIMYAM: the Kd with HLA-B*15:42 (setting [25]), in the experiment with HLA-B*83:01 (setting [25]) and with HLA-B*45:06 (setting [25]) was at least 5 µM in each case.
As to GGRAHRMAL, the Kd with HLA-C*15:02 (setting [17]) and with HLA-B*51:01 [2] (setting [17]) was at least 20 µM each time.
ERSWNTGFDW: the Kd with HLA-B*58:01 [1] (setting [22]) was determined as 0.683 µM.

What is called Kd is the equilibrium constant for the complex coming apart. What is called IC50 is the concentration that inhibits the measured activity by half.
